Test results as given in the Human Domainome abundance scans (Beltran et al. 2025).
± gives the uncertainty stated by the source.

B1: Bromodomain adjacent to zinc finger domain protein 2B, residues 1927 to 1982; numbered along this chain, Q9UIF8 (parent)
chain: KSIMKVYCQICRKGDNEELLLLCDGCDKGCHTYCHRPKITTIPDGDWFCPACIAKA

Variants of: B1
Experiment: abundance fitness (aPCA) (normalised: wild type 0, dead -1); higher = more abundant; growth selection in yeast, the domain comes from the species named
Conditions: Homo sapiens

I53H and I53S are within error of each other in abundance fitness: -0.083 ± 0.15 for the first, -0.033 ± 0.092 for the second.

I53F and I53Y are within error of each other in abundance fitness: -0.072 ± 0.24 for the first, -0.026 ± 0.16 for the second.

I53A and G25A are within error of each other in abundance fitness: -0.037 ± 0.074 for the first, -0.171 ± 0.084 for the second.

G25R and G25N are within error of each other in abundance fitness: -0.096 ± 0.072 for the first, -0.16 ± 0.13 for the second.

K5Q and K5R are within error of each other in abundance fitness: -0.113 ± 0.099 for the first, -0.095 ± 0.084 for the second.

K5L and K5M are within error of each other in abundance fitness: -0.202 ± 0.08 for the first, -0.083 ± 0.13 for the second.

Going from K5F to K5T, the abundance fitness rises from -0.444 ± 0.15 to -0.056 ± 0.089.

K5W and K5A are within error of each other in abundance fitness: -0.303 ± 0.11 for the first, -0.158 ± 0.094 for the second.

K5G and K5E are within error of each other in abundance fitness: -0.077 ± 0.079 for the first, -0.156 ± 0.12 for the second.

K1D and K1S are within error of each other in abundance fitness: -0.199 ± 0.2 for the first, -0.176 ± 0.14 for the second.

K1L and K1F are within error of each other in abundance fitness: -0.693 ± 0.38 for the first, -0.783 ± 0.4 for the second.

Going from C23Y to I3D, the abundance fitness rises from -0.42 ± 0.18 to 0.059 ± 0.14.

I3L and I3V are within error of each other in abundance fitness: -0.189 ± 0.075 for the first, -0.079 ± 0.064 for the second.

I3E and I3M are within error of each other in abundance fitness: -0.103 ± 0.087 for the first, -0.088 ± 0.11 for the second.

I3H and I3S are within error of each other in abundance fitness: -0.144 ± 0.13 for the first, -0.052 ± 0.076 for the second.

V6F and V6R are within error of each other in abundance fitness: 0.064 ± 0.2 for the first, 0.036 ± 0.064 for the second.

V6A and V6N are within error of each other in abundance fitness: -0.132 ± 0.1 for the first, -0.124 ± 0.27 for the second.

V6D and V6I are within error of each other in abundance fitness: -0.007 ± 0.21 for the first, -0.068 ± 0.13 for the second.

V6Y and V6S are within error of each other in abundance fitness: 0.171 ± 0.2 for the first, 0.014 ± 0.092 for the second.

T40I and T40K are within error of each other in abundance fitness: -0.123 ± 0.13 for the first, 0.072 ± 0.15 for the second.

T40M and T40H are within error of each other in abundance fitness: -0.024 ± 0.14 for the first, -0.128 ± 0.14 for the second.

T40Y and R36Y are within error of each other in abundance fitness: -0.11 ± 0.16 for the first, -0.252 ± 0.12 for the second.

First: R36F
Second: R36L
The abundance fitness of the first is lower: -0.154 ± 0.12 for the first, 0.06 ± 0.081 for the second.

R36W and I42S are within error of each other in abundance fitness: -0.004 ± 0.12 for the first, -0.065 ± 0.085 for the second.

I42Y and I42K are within error of each other in abundance fitness: -0.093 ± 0.18 for the first, 0.009 ± 0.1 for the second.

I42L and I42F are within error of each other in abundance fitness: -0.015 ± 0.08 for the first, -0.007 ± 0.2 for the second.

Compared with I42M, I42H is lower in abundance fitness: 0.049 ± 0.15 for the first, -0.235 ± 0.13 for the second.

I42E and F48A are within error of each other in abundance fitness: 0.069 ± 0.14 for the first, 0.021 ± 0.089 for the second.

F48H and F48L are within error of each other in abundance fitness: -0.029 ± 0.15 for the first, -0.064 ± 0.097 for the second.

F48V and F48W are within error of each other in abundance fitness: 0.044 ± 0.089 for the first, -0.07 ± 0.098 for the second.

F48T and F48Q are within error of each other in abundance fitness: 0.008 ± 0.12 for the first, -0.04 ± 0.12 for the second.

K13G and K13F are within error of each other in abundance fitness: -0.047 ± 0.078 for the first, -0.24 ± 0.16 for the second.

K13I and K13R are within error of each other in abundance fitness: -0.136 ± 0.2 for the first, -0.177 ± 0.069 for the second.

K13D and K13Y are within error of each other in abundance fitness: -0.047 ± 0.12 for the first, -0.271 ± 0.14 for the second.

K13M and R12H are within error of each other in abundance fitness: -0.002 ± 0.13 for the first, -0.187 ± 0.14 for the second.

Going from R12S to R12W, the abundance fitness falls from 0.042 ± 0.09 to -0.256 ± 0.11.

R12F and R12Q are within error of each other in abundance fitness: -0.23 ± 0.16 for the first, -0.041 ± 0.14 for the second.

Going from R12P to A54D, the abundance fitness rises from -0.89 ± 0.17 to -0.062 ± 0.12.

A54G and A54V are within error of each other in abundance fitness: -0.086 ± 0.072 for the first, -0.053 ± 0.09 for the second.

A54H and A54K are within error of each other in abundance fitness: -0.164 ± 0.13 for the first, -0.036 ± 0.12 for the second.

Compared with A54Q, C11V is lower in abundance fitness: 0.066 ± 0.11 for the first, -1.16 ± 0.099 for the second.

First: C11W
Second: C11E
The abundance fitness of the first is lower: -1.21 ± 0.14 for the first, -0.808 ± 0.12 for the second.

C11H and C11K are within error of each other in abundance fitness: -0.85 ± 0.28 for the first, -0.887 ± 0.21 for the second.

C11S and C11F are within error of each other in abundance fitness: -0.997 ± 0.097 for the first, -0.961 ± 0.17 for the second.

D27A and D27C are within error of each other in abundance fitness: -0.112 ± 0.083 for the first, -0.187 ± 0.11 for the second.

D27M and D27T are within error of each other in abundance fitness: -0.128 ± 0.19 for the first, -0.08 ± 0.11 for the second.

D27E and K28A are within error of each other in abundance fitness: 0.109 ± 0.12 for the first, -0.085 ± 0.079 for the second.

Going from K28I to K28Q, the abundance fitness rises from -0.329 ± 0.15 to 0.094 ± 0.19.

K28S and K28W are within error of each other in abundance fitness: -0.089 ± 0.087 for the first, 0.008 ± 0.1 for the second.

Compared with K28P, K28M is higher in abundance fitness: -0.755 ± 0.15 for the first, -0.002 ± 0.12 for the second.

K28E and K28N are within error of each other in abundance fitness: 0.034 ± 0.11 for the first, -0.047 ± 0.14 for the second.

M4T and M4V are within error of each other in abundance fitness: -0.06 ± 0.11 for the first, -0.138 ± 0.081 for the second.

Compared with M4G, M4R is higher in abundance fitness: -0.325 ± 0.071 for the first, -0.157 ± 0.08 for the second.

M4S and M4Q are within error of each other in abundance fitness: -0.161 ± 0.091 for the first, -0.065 ± 0.12 for the second.

H31N and H31T are within error of each other in abundance fitness: -0.553 ± 0.14 for the first, -0.446 ± 0.1 for the second.

Compared with H31W, H31R is higher in abundance fitness: -0.856 ± 0.1 for the first, -0.601 ± 0.069 for the second.

H31E and H31Y are within error of each other in abundance fitness: -0.753 ± 0.12 for the first, -0.573 ± 0.1 for the second.

First: H31G
Second: H31F
The abundance fitness of the first is higher: -0.471 ± 0.063 for the first, -0.954 ± 0.2 for the second.

Compared with H31M, H31L is lower in abundance fitness: -0.71 ± 0.11 for the first, -0.926 ± 0.1 for the second.

C8D and C8L are within error of each other in abundance fitness: -1 ± 0.16 for the first, -1.13 ± 0.13 for the second.

C8S and C8M are within error of each other in abundance fitness: -0.944 ± 0.11 for the first, -0.807 ± 0.34 for the second.

C8I and C8F are within error of each other in abundance fitness: -1.34 ± 0.43 for the first, -0.978 ± 0.36 for the second.

First: C8Q
Second: H35V
The abundance fitness of the first is lower: -0.661 ± 0.22 for the first, -0.052 ± 0.083 for the second.

H35F and H35D are within error of each other in abundance fitness: -0.109 ± 0.11 for the first, 0.001 ± 0.14 for the second.

H35I and H35Q are within error of each other in abundance fitness: -0.019 ± 0.19 for the first, -0.09 ± 0.097 for the second.

L22A and L22E are within error of each other in abundance fitness: 0.032 ± 0.083 for the first, 0.029 ± 0.092 for the second.

L22M and L22N are within error of each other in abundance fitness: -0.067 ± 0.13 for the first, -0.051 ± 0.15 for the second.

Going from L22K to K38S, the abundance fitness falls from 0.144 ± 0.12 to -0.059 ± 0.072.

K38Y and K38H are within error of each other in abundance fitness: -0.148 ± 0.12 for the first, -0.153 ± 0.1 for the second.

K38N and P43D are within error of each other in abundance fitness: -0.139 ± 0.12 for the first, -0.071 ± 0.2 for the second.

P43N and P43K are within error of each other in abundance fitness: -0.245 ± 0.23 for the first, -0.08 ± 0.15 for the second.

P43T and P43E are within error of each other in abundance fitness: -0.003 ± 0.13 for the first, -0.041 ± 0.11 for the second.

First: P43C
Second: P43F
The abundance fitness of the first is higher: -0.095 ± 0.14 for the first, -0.451 ± 0.17 for the second.

P43L and P43H are within error of each other in abundance fitness: -0.163 ± 0.1 for the first, -0.217 ± 0.14 for the second.

Q9N and Q9W are within error of each other in abundance fitness: -0.041 ± 0.12 for the first, -0.203 ± 0.085 for the second.

Q9T and Q9G are within error of each other in abundance fitness: -0.063 ± 0.092 for the first, -0.038 ± 0.059 for the second.

Q9Y and Q9F are within error of each other in abundance fitness: 0.029 ± 0.12 for the first, -0.099 ± 0.15 for the second.

Q9P and Q9V are within error of each other in abundance fitness: 0.004 ± 0.11 for the first, -0.149 ± 0.074 for the second.

First: L21H
Second: L21A
The abundance fitness of the first is lower: -0.37 ± 0.15 for the first, -0.117 ± 0.1 for the second.

L21D and L21N are within error of each other in abundance fitness: -0.346 ± 0.12 for the first, -0.206 ± 0.12 for the second.

T41P and T41R are within error of each other in abundance fitness: 0.074 ± 0.16 for the first, -0.048 ± 0.072 for the second.

T41C and T41W are within error of each other in abundance fitness: -0.09 ± 0.14 for the first, -0.167 ± 0.11 for the second.

T41K and T41G are within error of each other in abundance fitness: 0.085 ± 0.24 for the first, 0.001 ± 0.061 for the second.

For T41L, the abundance fitness was -0.187 ± 0.1.
